In PMC4930246 (Structure (London, England : 1993), 2015):

T1: FLRT3-LRR R117T (mouse, UniProt Q8BGT1 29-386, R117T, additional N-linked glycosylation at Asn115)
T1 sequence (looked up): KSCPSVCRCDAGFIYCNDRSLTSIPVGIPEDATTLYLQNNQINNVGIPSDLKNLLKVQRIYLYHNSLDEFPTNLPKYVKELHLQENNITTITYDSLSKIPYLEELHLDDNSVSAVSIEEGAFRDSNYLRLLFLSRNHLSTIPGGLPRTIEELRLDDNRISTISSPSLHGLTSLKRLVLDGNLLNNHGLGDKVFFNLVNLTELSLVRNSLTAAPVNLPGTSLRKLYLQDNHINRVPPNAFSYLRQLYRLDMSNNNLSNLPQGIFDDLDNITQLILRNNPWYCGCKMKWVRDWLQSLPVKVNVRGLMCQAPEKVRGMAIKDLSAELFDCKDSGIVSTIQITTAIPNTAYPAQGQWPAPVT

T2: FLRT3-LRR F160A (mouse, UniProt Q8BGT1 29-386, F160A)
T2 sequence (looked up): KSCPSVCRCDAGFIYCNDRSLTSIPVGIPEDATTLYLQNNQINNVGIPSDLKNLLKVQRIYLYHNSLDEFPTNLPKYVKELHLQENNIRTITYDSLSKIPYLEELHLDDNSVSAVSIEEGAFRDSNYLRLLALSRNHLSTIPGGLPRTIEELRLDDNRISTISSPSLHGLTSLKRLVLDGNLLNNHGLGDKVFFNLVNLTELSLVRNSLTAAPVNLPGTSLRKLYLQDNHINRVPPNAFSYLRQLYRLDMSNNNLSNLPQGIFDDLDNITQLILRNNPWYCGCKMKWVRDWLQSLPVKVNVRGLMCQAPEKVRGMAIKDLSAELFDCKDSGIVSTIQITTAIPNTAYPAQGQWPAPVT

B1: FLRT3-LRR (leucine-rich repeat domain of mouse FLRT3, amino acids 29-386) (domain or fragment, UniProt Q8BGT1 29-386, looked up)
chain: KSCPSVCRCDAGFIYCNDRSLTSIPVGIPEDATTLYLQNNQINNVGIPSDLKNLLKVQRIYLYHNSLDEFPTNLPKYVKELHLQENNIRTITYDSLSKIPYLEELHLDDNSVSAVSIEEGAFRDSNYLRLLFLSRNHLSTIPGGLPRTIEELRLDDNRISTISSPSLHGLTSLKRLVLDGNLLNNHGLGDKVFFNLVNLTELSLVRNSLTAAPVNLPGTSLRKLYLQDNHINRVPPNAFSYLRQLYRLDMSNNNLSNLPQGIFDDLDNITQLILRNNPWYCGCKMKWVRDWLQSLPVKVNVRGLMCQAPEKVRGMAIKDLSAELFDCKDSGIVSTIQITTAIPNTAYPAQGQWPAPVT
modifications: N-linked glycosylation (three predicted sites; one N-Acetyl-glucosamine modelled on Asn226)
B2: LPHN3-OLF (olfactomedin domain of mouse latrophilin 3, amino acids 199-495) (domain or fragment, UniProt Q80TS3 199-495, looked up)
chain: KVFLCPGLLKGVYQSEHLFESDHQSGAWCKDPLQASDKIYYMPWTPYRTDTLTEYSSKDDFIAGRPTTTYKLPHRVDGTGFVVYDGALFFNKERTRNIVKFDLRTRIKSGEAIIANANYHDTSPYRWGGKSDIDLAVDENGLWVIYATEQNNGKIVISQLNPYTLRIEGTWDTAYDKRSASNAFMICGILYVVKSVYEDDDNEATGNKIDYIYNTDQSKDSLVDVPFPNSYQYIAAVDYNPRDNLLYVWNNYHVVKYSLDFGPLDSRSGPVHHGQVSYISPPIHLDSELERPPVRGI

Key:
AUC = biological target: the molecule itself; test: AUC
FLRT3-LRR R117T = biological target: T1, FLRT3-LRR R117T; test: ITC
FLRT3-LRR F160A = biological target: T2, FLRT3-LRR F160A; test: ITC

| Binder | Kd (AUC) | stoichiometry N (AUC) | Kd (FLRT3-LRR R117T) | Kd (FLRT3-LRR F160A) |
| --- | --- | --- | --- | --- |
| B1 | 43300 nM | 2 | – | – |
| B2 | – | – | 27 nM | 1000 nM |
